Source: FireProtDB (doi:10.1002/pro.398)

Details: Gallus gallus, Thermal, CD, whole UniProt chain shown

B1: Ovalbumin wild type, P01012 (protein)
chain: MGSIGAASMEFCFDVFKELKVHHANENIFYCPIAIMSALAMVYLGAKDSTRTQINKVVRFDKLPGFGDSIEAQCGTSVNVHSSLRDILNQITKPNDVYSFSLASRLYAEERYPILPEYLQCVKELYRGGLEPINFQTAADQARELINSWVESQTNGIIRNVLQPSSVDSQTAMVLVNAIVFKGLWEKAFKDEDTQAMPFRVTEQESKPVQMMYQIGLFRVASMASEKMKILELPFASGTMSMLVLLPDEVSGLEQLESIINFEKLTEWTSSNVMEERKIKVYLPRMKMEEKYNLTSVLMAMGITDVFSSSANLSGISSAESLKISQAVHAAHAEINEAGREVVGSAEAGVDAASVSEEFRADHPFLFCIKHIATNAVLFFGRCVSP
- Tm (pH 7, Phosphate 10 mM): 69.8 °C
- Tm (pH 10, Glycine-NaOH 0.1 M): 78.9 °C
